Experimental data from the supplement of paper PMC10724198.
± gives the standard deviation of the averaged measurements.

Test system: Saccharomyces cerevisiae
Test: protein stability index of tFT-peptide fusion (C-terminal peptide) (PSI (0-1 scale)); higher = more stable (slower turnover)
Conditions: genetic background: wild type; temperature: 30 C
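Also: PSI is a weighted mean of sequencing reads over stability bins, variants kept only with over 10 reads, mCherry proximal and sfGFP distal, peptide attached via GGGS linker.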

Row | Sequence | protein stability index
1 | TPLHRIGGLHLK | 0.653 ± 0.0075
2 | TPPLALPAPCST | 0.679 ± 0.035
3 | TPPLPRFHAPQP | 0.665 ± 0.017
4 | TPPLRPLLYSNA | 0.53 ± 0.059
5 | TPPPAPRPPLPS | 0.719 ± 0.069
6 | TPPPLRTASLLP | 0.67 ± 0.1
7 | TPPSPDPSPPNT | 0.789 ± 0.046
8 | TPSPHTPLPLAP | 0.708 ± 0.09
9 | TPSPTRCPTPTR | 0.6 ± 0.025
10 | TPTLPPPSPTFH | 0.666 ± 0.021
11 | TPTSPPLPLTIS | 0.579 ± 0.016
12 | TPWLRGVVGPGS | 0.671 ± 0.083
13 | TQGLSSYYRHKI | 0.686 ± 0.061
14 | TQLSSVVVGGRR | 0.669 ± 0.015
15 | TRCDSSGGSAAP | 0.68 ± 0.094
16 | TRDATESLVERV | 0.694 ± 0.02
17 | TRFFFLLCRRSL | 0.57 ± 0.082
18 | TRGAGAKYSSVR | 0.721 ± 0.019
19 | TRGKETESIDSR | 0.685 ± 0.036
20 | TRICFPRFPPAP | 0.703 ± 0.044
21 | TRIGNGHPLGCG | 0.718 ± 0.024
22 | TRKRIKKHSMNK | 0.672 ± 0.085
23 | TRLVYFYLGRDI | 0.656 ± 0.054
24 | TRRRGGAREGPY | 0.758 ± 0.064
25 | TRSLPTLSPPPS | 0.659 ± 0.086
26 | TRSPTVAMRPKE | 0.676 ± 0.036

Row | Sequence | protein stability index
27 | TRTQTLAGILGG | 0.677 ± 0.029
28 | TRTRSMTQLVPL | 0.716 ± 0.068
29 | TRYGVRVPGRFR | 0.678 ± 0.018
30 | TSARQGFFASLV | 0.646 ± 0.049
31 | TSCPPAHLPPPP | 0.659 ± 0.046
32 | TSGDFLPSHSFL | 0.702 ± 0.074
33 | TSPGLPLPLPSP | 0.716 ± 0.0048
34 | TSPLSPPLPSFR | 0.696 ± 0.021
35 | TSPLSPSGPQSS | 0.86 ± 0.14
36 | TSPPPPSRPPSH | 0.691 ± 0.029
37 | TSPSLSALLSFV | 0.715 ± 0.073
38 | TSPVCPARPRQL | 0.646 ± 0.042
39 | TSSASVCASSVQ | 0.588 ± 0.023
40 | TSSTEKTKTKRP | 0.809 ± 0.17
41 | TTITTRSCALSS | 0.707 ± 0.015
42 | TTMNELPKSIKK | 0.739 ± 0.042
43 | TTPPPLPSDPLR | 0.622 ± 0.026
44 | TTRACVTRGCSV | 0.623 ± 0.051
45 | TTRTAAKKIHKD | 0.74 ± 0.055
46 | TTSQGHLCVAPR | 0.6827 ± 0.0038
47 | TTSSRDYIELLL | 0.729 ± 0.016
48 | TTTFPFGRLVLS | 0.68 ± 0.028
49 | TTVLRTFGDKQF | 0.715 ± 0.00088
50 | TTVRTVSLIDRI | 0.689 ± 0.059
51 | TVAEGKKMRGKV | 0.672 ± 0.036
52 | TVLKCECEYFLH | 0.654 ± 0.019

Row | Sequence | protein stability index
53 | TVPGKDEGEESV | 0.696 ± 0.037
54 | TVRAPLDSARCP | 0.739 ± 0.017
55 | TVWSSPPSRRSS | 0.699 ± 0.043
56 | TWAVTGDLLITR | 0.815 ± 0.15
57 | TWCSFHFYSFWC | 0.578 ± 0.01
58 | TWIPSFACQSLQ | 0.70274 ± 0.00029
59 | TYLSSPAPLLPL | 0.694 ± 0.033
60 | TYQNAKAEPTRV | 0.671 ± 0.038
61 | VACKGCVVACRV | 0.527 ± 0.045
62 | VACLVGVRGSWV | 0.66683 ± 0.00048
63 | VAESPGWAAGVD | 0.689 ± 0.015
64 | VAGDGYDVMDNG | 0.553 ± 0.029
65 | VAGFPSPVVLGW | 0.607 ± 0.085
66 | VALFIRITKHEY | 0.549 ± 0.027
67 | VAPPVLCRCSLR | 0.6481 ± 0.0052
68 | VARVGFRETLSF | 0.703 ± 0.05
69 | VATVSLSVRNTS | 0.66 ± 0.033
70 | VAVGLGRAVFGV | 0.611 ± 0.034
71 | VAVWGGSGDWGR | 0.729 ± 0.068
72 | VCAEGAAYSDKA | 0.646 ± 0.038
73 | VCAFGFPAASRV | 0.6627 ± 0.0046
74 | VCFSVSWSGLSC | 0.681 ± 0.009
75 | VCGALRWCGGPD | 0.705 ± 0.018
76 | VCGLRFLLFGCG | 0.63 ± 0.021
77 | VCIGVGGVVLGL | 0.642 ± 0.039
78 | VCKQASDSKLQG | 0.663 ± 0.023

Row | Sequence | protein stability index
79 | VCLRVGQGVLWW | 0.727 ± 0.021
80 | VCLVCLFNACRF | 0.608 ± 0.032
81 | VCLVNWLCFFCV | 0.529 ± 0.037
82 | VCPPSPTLKPPP | 0.624 ± 0.011
83 | VCRRSVLHSCWS | 0.678 ± 0.0097
84 | VCRTLAPCIRWR | 0.633 ± 0.063
85 | VCSLSCVGIWYW | 0.625 ± 0.0039
86 | VCTRACFLFAYP | 0.582 ± 0.015
87 | VDCYIFPGIGAL | 0.701 ± 0.041
88 | VDHWVCWCGGWV | 0.731 ± 0.0098
89 | VDINYVIGRIRS | 0.642 ± 0.0087
90 | VDRAFVWYLRDL | 0.695 ± 0.0076
91 | VDRDWFLKRDSH | 0.711 ± 0.031
92 | VDTTISVCCSVC | 0.68339 ± 0.00029
93 | VDVSGIKAGRPW | 0.681 ± 0.011
94 | VEAFIVDETRVV | 0.6984 ± 0.0064
95 | VEAGDYAWDEAA | 0.657 ± 0.056
96 | VECVPFAPPRPH | 0.68 ± 0.14
97 | VEEKDNNVRYVL | 0.697 ± 0.025
98 | VEHVRIGGGGKS | 0.7 ± 0.013
99 | VEQISYATIAFV | 0.608 ± 0.061
100 | VERIALIPASRQ | 0.706 ± 0.035
101 | VERRNAVGTDEK | 0.611 ± 0.063
102 | VEVCLLRRWFGL | 0.667 ± 0.055
103 | VEWGGDGVFWTG | 0.8 ± 0.023
104 | VFALFRLSSLDK | 0.673 ± 0.074

Row | Sequence | protein stability index
105 | VFALPPAPPPSP | 0.722 ± 0.062
106 | VFCPGWRKCNDP | 0.661 ± 0.043
107 | VFEVNPRFDKLV | 0.758 ± 0.016
108 | VFFCHFRFTPPS | 0.692 ± 0.059
109 | VFFDLALRWYGV | 0.748 ± 0.082
110 | VFGDFAIGGLSG | 0.711 ± 0.077
111 | VFGLSPLLQPSD | 0.654 ± 0.0086
112 | VFGRHSNRSPLY | 0.808 ± 0.07
113 | VFLGCCWVHFFY | 0.534 ± 0.0062
114 | VFLILKPRDLTE | 0.667 ± 0.01
115 | VFLSITHFESRV | 0.723 ± 0.055
116 | VFPIISYPHTKS | 0.6779 ± 0.0064
117 | VFPPRPPRAFPP | 0.662 ± 0.00098
118 | VFPYGVSRGALL | 0.66 ± 0.011
119 | VFRFRARRYNES | 0.655 ± 0.079
120 | VFSFFNFCFCFY | 0.615 ± 0.06
121 | VFSTRLTSWYLT | 0.555 ± 0.01
122 | VFVGCRECKLCA | 0.57592 ± 7.6e-05
123 | VFVLEGSSTPRS | 0.6487 ± 0.0011
124 | VFVRSTSFLFFG | 0.678 ± 0.0097
125 | VGAAVFGARWGA | 0.689 ± 0.037
126 | VGACLEVWDGVR | 0.686 ± 0.024
127 | VGAEGWAVAGDM | 0.77 ± 0.078
128 | VGAGGSLPLNKV | 0.6928 ± 0.0062
129 | VGAPGGVETTKA | 0.685 ± 0.015
130 | VGARAIITIEFG | 0.598 ± 0.018

Row | Sequence | protein stability index
131 | VGASFVAVGVEG | 0.641 ± 0.041
132 | VGAWGLMLASVV | 0.5698 ± 0.0055
133 | VGAWRGVLVGGG | 0.612 ± 0.0068
134 | VGCFLDSLWDWV | 0.679 ± 0.022
135 | VGCGCVRGYWFG | 0.734 ± 0.018
136 | VGCPKMTKIFFV | 0.594 ± 0.028
137 | VGCVFVASRLVL | 0.627 ± 0.038
138 | VGCWLLGYFAHQ | 0.675 ± 0.0095
139 | VGDGAVGKTRGD | 0.681 ± 0.039
140 | VGDVGESMWGLG | 0.727 ± 0.091
141 | VGEGWGAMIMQE | 0.737 ± 0.038
142 | VGEGWWQKGMEV | 0.676 ± 0.079
143 | VGEVLCVGGAFY | 0.659 ± 0.024
144 | VGFISRIKSLYV | 0.648 ± 0.0096
145 | VGGCRVLCVGLG | 0.651 ± 0.06
146 | VGGGCGVRVVVV | 0.684 ± 0.05
147 | VGGGEVRAWGLR | 0.661 ± 0.008
148 | VGGGGGGCLVDC | 0.653 ± 0.028
149 | VGGGVGGRDGAS | 0.659 ± 0.051
150 | VGGRGGGRGVVG | 0.672 ± 0.0073
151 | VGGRLRECVRVG | 0.628 ± 0.078
152 | VGGRVGERRGAP | 0.656 ± 0.044
153 | VGGVWGGGWGHW | 0.736 ± 0.021
154 | VGGWGGFGLFFP | 0.742 ± 0.098
155 | VGIGLTLSLRFS | 0.598 ± 0.0066
156 | VGLGEWMGALGV | 0.6634 ± 0.006

Row | Sequence | protein stability index
157 | VGLGFVVNAPGL | 0.73 ± 0.1
158 | VGLRPPRPAPPS | 0.623 ± 0.035
159 | VGMCVGEVVAIV | 0.521 ± 0.015
160 | VGPDGFWGVVLG | 0.719 ± 0.023
161 | VGPVGSVGVGGR | 0.654 ± 0.013
162 | VGPWQVQRLLWT | 0.623 ± 0.056
163 | VGRLGPMVGLLL | 0.6 ± 0.083
164 | VGRRDNHPTEKT | 0.73 ± 0.025
165 | VGRRTRGHDGVT | 0.659 ± 0.078
166 | VGSGEVFEVMEG | 0.64 ± 0.036
167 | VGSSSRSLFWCF | 0.689 ± 0.04
168 | VGSWSVICGGVL | 0.6929 ± 0.0061
169 | VGTGPGLKRPCH | 0.774 ± 0.035
170 | VGVEIKITKEKK | 0.739 ± 0.038
171 | VGVGPVGDVWLI | 0.6979 ± 0.0027
172 | VGWRCWVGSVGL | 0.6686 ± 0.0029
173 | VGYGRGGAVGVE | 0.695 ± 0.012
174 | VHLCLPPLPLHT | 0.651 ± 0.019
175 | VHPHPRSIKRER | 0.6324 ± 0.0026
176 | VIARALGLFLSD | 0.693 ± 0.035
177 | VIEIGEYSGNGK | 0.707 ± 0.046
178 | VIFFLPWYTPHP | 0.6919 ± 0.0023
179 | VIGSKQERRAEK | 0.6905 ± 0.0016
180 | VIGWSGGCRWSV | 0.73 ± 0.027
181 | VIKESKKKTKKI | 0.544 ± 0.044
182 | VIPYLISSLYAV | 0.691 ± 0.13

Row | Sequence | protein stability index
183 | VIRDISAFSQVV | 0.677 ± 0.07
184 | VKGRKNEGPGKR | 0.748 ± 0.065
185 | VKGYGLILQISV | 0.56537 ± 0.00043
186 | VKKHRQTNGMVY | 0.739 ± 0.018
187 | VKVYHVPSTFSV | 0.681 ± 0.029
188 | VLCGALRIVGHK | 0.603 ± 0.017
189 | VLCKDGHRGFGC | 0.589 ± 0.057
190 | VLCLRSNRHGVF | 0.698 ± 0.015
191 | VLCRVALWGVGG | 0.653 ± 0.02
192 | VLEGAWPGAEAV | 0.722 ± 0.083
193 | VLFCQLFCDFFG | 0.631 ± 0.084
194 | VLFGLFAPCFLF | 0.59 ± 0.019
195 | VLFGSVSCCLLW | 0.686 ± 0.043
196 | VLFLLSGPAILL | 0.682 ± 0.0075
197 | VLFSSDLIVPQL | 0.725 ± 0.018
198 | VLGGLGWVCWVV | 0.531 ± 0.013
199 | VLGLALYTLSTS | 0.68 ± 0.041
200 | VLLAVGELFRVD | 0.649 ± 0.0084
201 | VLLEGCQSYVIW | 0.652 ± 0.03
202 | VLLLGYDRGWDD | 0.718 ± 0.015
